Data as given in patent publication US11198713B2, “Agents modulating beta-catenin functions and methods thereof” (FOG PHARMACEUTICALS, INC., priority 2017, dated 2021).
Numbered stars: 1 amine (or outer) side, 2 acyl side, 3 side chain; on linkers, the order of the positions; unused ones are H or OH. Bridge positions count the residues as written; N and C are the ends. Square brackets hold non-standard residues; d marks the D form. Primed or numbered codes have the meaning given here. MB(4) = Monomer B (PyrS), N-Alloc pyrrolidine stapling residue, (S)-3-amino-1-(allyloxycarbonyl)pyrrolidine-3-carboxylic acid, C=CCOC(=O)N1CC[C@@](N[*:1])(C(=O)[*:2])C1; R7″ = stapling residue, (R)-2-(6-heptenyl)alanine (drawn only), C=CCCCCC[C@@](C)(N[*:1])C(=O)[*:2]; MB(15) = Monomer B = PyrS (PS), pyrrolidine stapling residue (Alloc on ring N); MB(11) = Monomer B (PyrS), pyrrolidine-bearing Alloc-olefin stapling residue; ME = Monomer E = RgN, acyclic alkyl-N(Alloc) olefin stapling residue; R7 = (R)-2-(6-heptenyl)alanine, C=CCCCCC[C@@](C)(N[*:1])C(=O)[*:2]; R6 = (R)-2-(5-hexenyl)alanine, C=CCCCC[C@@](C)(N[*:1])C(=O)[*:2]; MB(5) = Monomer B (PyrS), N-Alloc pyrrolidine stapling residue; R4 = (R)-2-(3-butenyl)alanine, C=CCC[C@@](C)(N[*:1])C(=O)[*:2]; MB(14) = Monomer B = PyrS, Alloc-pyrrolidine stapling residue; MF = Monomer F (SdN), acyclic alkyl-N(Alloc) stapling residue; MA = Monomer A (Az), N-Alloc azetidine stapling residue; S7 = C[C@@](CCCCCC=[*:3])(N[*:1])C(=O)[*:2]; Arg(Me2a) = CN(C)C(=N)NCCC[C@H](N)C(=O)O; Arg(Me2s) = CN=C(NC)NCCC[C@H](N)C(=O)O; 1Nal = N[C@@H](Cc1cccc2ccccc12)C(=O)O; hArg = N=C(N)NCCCC[C@H](N)C(=O)O; R8 = C=CCCCCCC[C@@](C)(N)C(=O)O; S8 = C=CCCCCCC[C@](C)(N)C(=O)O; αMeL = CC(C)C[C@](C)(N)C(=O)O; R5 = C=CCCC[C@@](C)(N)C(=O)O; αMeV = CC(C)[C@](C)(N)C(=O)O; S5 = C=CCCC[C@](C)(N)C(=O)O; Aib = CC(C)(N)C(=O)O

T1: full-length beta-catenin (UniProt P35222 2-781, limits assumed)
T1 construct: mature; also called full-length ß-Catenin; β-catenin
T1 sequence (looked up): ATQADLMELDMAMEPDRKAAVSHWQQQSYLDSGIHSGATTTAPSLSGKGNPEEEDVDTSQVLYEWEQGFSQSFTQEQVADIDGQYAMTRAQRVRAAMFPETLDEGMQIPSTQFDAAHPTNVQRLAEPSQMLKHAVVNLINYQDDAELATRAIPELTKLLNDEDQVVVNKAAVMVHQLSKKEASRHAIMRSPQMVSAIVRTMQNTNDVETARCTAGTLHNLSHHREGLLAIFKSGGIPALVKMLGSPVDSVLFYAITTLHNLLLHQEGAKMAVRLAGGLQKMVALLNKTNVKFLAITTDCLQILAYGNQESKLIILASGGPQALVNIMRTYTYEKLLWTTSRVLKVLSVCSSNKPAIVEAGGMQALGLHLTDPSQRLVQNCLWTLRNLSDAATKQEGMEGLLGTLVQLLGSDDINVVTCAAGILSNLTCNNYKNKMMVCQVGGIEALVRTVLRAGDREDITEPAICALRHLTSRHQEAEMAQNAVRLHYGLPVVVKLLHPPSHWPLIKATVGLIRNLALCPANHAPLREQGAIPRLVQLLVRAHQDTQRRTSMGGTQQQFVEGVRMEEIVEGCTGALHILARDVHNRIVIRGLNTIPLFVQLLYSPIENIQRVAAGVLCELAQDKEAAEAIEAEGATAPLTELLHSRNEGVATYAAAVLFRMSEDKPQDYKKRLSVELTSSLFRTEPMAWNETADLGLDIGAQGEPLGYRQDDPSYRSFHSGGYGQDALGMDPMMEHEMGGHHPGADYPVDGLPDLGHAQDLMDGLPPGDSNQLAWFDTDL

B1: FP0611c (peptide)
peptide: AXILDAHIXRVW
modifications: not fully specified; Ac-A-MA-I-L-D-A-H-I-MF-R-V-W-NH2; carbamate staple MA/MF
B2: FP0639c (peptide)
peptide: Ac-A[R8]ILDAHI[MB(4)][Arg(Me2a)]VW-NH2
modifications: staple 2-9
B3: FP0645c (peptide)
peptide: Ac-A[R8]ILD[Aib]HI[MB(15)]RVW-NH2
modifications: staple 2-9
B4: FP0634c (peptide)
peptide: Ac-A[R8]ILDAHI[MB(4)][hArg]VW-NH2
modifications: staple 2-9
B5: FP0616c (peptide)
peptide: AXILDAHIXRVW
modifications: not fully specified; Ac-A-MA-I-L-D-A-H-I-MC-R-V-W-NH2; carbamate staple MA/MC
B6: FP0605c (peptide)
peptide: AXILDAHIXRVW
modifications: not fully specified; Ac-A-ME-I-L-D-A-H-I-MC-R-V-W-NH2; carbamate staple ME/MC
B7: FP0626c (peptide)
peptide: Ac-A[MF]ILDAHI[MB(5)]RVW-NH2
modifications: staple 2-9
B8: FP0617c (peptide)
peptide: AXILDAHIXRVW
modifications: not fully specified; Ac-A-MA-I-L-D-A-H-I-MB-R-V-W-NH2; carbamate staple MA/MB
B9: FP0640c (peptide)
peptide: Ac-A[R8]ILDAHI[MB(4)][Arg(Me2s)]VW-NH2
modifications: staple 2-9
B10: FP0721c (peptide)
peptide: Ac-PQ[MA]ILD[R4]HVRRVWR-NH2
modifications: staple 3-7
B11: FP0727c (peptide)
peptide: Ac-PQ[MA]ILD[R7]HVRRVWR-NH2
modifications: staple 3-7
B12: FP0724c (peptide)
peptide: Ac-PQ[MA]ILD[S5]HVRRVWR-NH2
modifications: staple 3-7
B13: FP0728c (peptide)
peptide: Ac-PQ[MA]ILD[S7]HVRRVWR-NH2
modifications: staple 3-7
B14: FP0723c (peptide)
peptide: Ac-PQ[MA]ILD[R5]HVRRVWR-NH2
modifications: staple 3-7
B15: FP0506c Isomer 1 (peptide)
peptide: Ac-A[MI]ILDAHI[S5]RVW-NH2
modifications: staple 2-9; also: carbamate staple, isomer 1, olefin geometry not assigned
B16: FP0516c (peptide)
peptide: Ac-A[R7″]ILDAHI[MA]RVW-NH2
modifications: staple 2-9
B17: FP0503c (peptide)
peptide: Ac-A[R7]ILDAHI[MF]RVW-NH2
modifications: staple 2-9; also: carbamate staple, olefin geometry not assigned
B18: FP0516a Isomer 1 (peptide)
peptide: Ac-A[R7″]ILDAHI[MA]RVW-NH2
modifications: staple 2-9; not fully specified; printed as Ac-A-R7-I-L-D-A-H-I-MA-R-V-W-NH2
B19: FP0501c (peptide)
peptide: AXILDAHIXRVW
modifications: not fully specified; Ac-A-R5-I-L-D-A-H-I-MF-R-V-W-NH2; carbamate staple R5/MF
B20: FP0625c (peptide)
peptide: AXILDAHIXRVW
modifications: not fully specified; Ac-A-MA-I-L-D-A-H-I-MI-R-V-W-NH2; carbamate staple MA/MI
B21: FP0502c Isomer 2 (peptide)
peptide: Ac-A[R6]ILDAHI[MF]RVW-NH2
modifications: staple 2-9; also: carbamate staple, isomer 2, olefin geometry not assigned
notes: also called FP0502c (Peak 2)
B22: FP0335c Isomer 1 (peptide)
peptide: AXILDAHIXRVW
modifications: not fully specified; Ac-A-ME-I-L-D-A-H-I-S8-R-V-W-NH2; carbamate staple ME/S8
B23: FP0628_aib (peptide)
peptide: Ac-A[Aib]ILDAHI[Aib]RVW-NH2
SMILES: CC[C@H](C)[C@H](NC(=O)[C@H](Cc1c[nH]cn1)NC(=O)[C@H](C)NC(=O)[C@H](CC(=O)O)NC(=O)[C@H](CC(C)C)NC(=O)[C@@H](NC(=O)C(C)(C)NC(=O)[C@H](C)NC(C)=O)[C@@H](C)CC)C(=O)NC(C)(C)C(=O)N[C@@H](CCCNC(=N)N)C(=O)N[C@H](C(=O)N[C@@H](Cc1c[nH]c2ccccc12)C(N)=O)C(C)C
B24: FP0594c (peptide)
peptide: AXILDAHIXRVW
modifications: not fully specified; Ac-A-MG-I-L-D-A-H-I-MF-R-V-W-NH2; carbamate staple MG/MF
B25: FP0632c (peptide)
peptide: Ac-A[R8]ILDAHI[MB(4)]R[αMeV]W-NH2
modifications: staple 2-9
B26: FP0212s Isomer 2 (peptide)
peptide: PAXILDAHVXRVW
modifications: not fully specified; Ac-P-A-R5-I-L-D-A-H-V-S8-R-V-W-NH2; hydrocarbon staple R5/S8
B27: FP0503a (peptide)
peptide: AXILDAHIXRVW
modifications: not fully specified; Ac-A-R7-I-L-D-A-H-I-MF-R-V-W-NH2; amino staple R7/MF
B28: FP0630c (peptide)
peptide: Ac-A[R8]ILDAHI[MB(5)]RV[dW]-NH2
modifications: staple 2-9
B29: FP0218c (peptide)
peptide: Ac-A[R8]ILNAHI[MB(14)]RVW-NH2
modifications: staple 2-9
B30: FP0219c (peptide)
peptide: Ac-A[R8]ILTAHI[MB(14)]RVW-NH2
modifications: staple 2-9
B31: FP0410c (peptide)
peptide: AXILDAHIXAVW
modifications: not fully specified; Ac-A-R8-I-L-D-A-H-I-MB-A-V-W-NH2; carbamate staple R8/MB
B32: FP0635c (peptide)
peptide: Ac-A[R8]ILDAHI[MB(4)]KVW-NH2
modifications: staple 2-9
B33: FP0636c (peptide)
peptide: Ac-A[R8]ILDAHI[MB(4)]K(Me)VW-NH2
modifications: staple 2-9
B34: FP0365c (peptide)
peptide: Ac-A[R8]ILDAHI[MB(11)][1Nal]VW-NH2
modifications: staple 2-9; also: carbamate staple R8/MB (-N(R')-C(O)-O-)
notes: isomer not specified
B35: FP0406c (peptide)
peptide: AXIADAHIXRVW
modifications: not fully specified; Ac-A-R8-I-A-D-A-H-I-MB-R-V-W-NH2; carbamate staple R8/MB
B36: FP0335a (peptide)
peptide: Ac-A[ME]ILDAHI[S8]RVW-NH2
modifications: staple 2-9
B37: FP0495c (peptide)
peptide: Ac-A[R7]ILDAHI[MD]RVW-NH2
modifications: staple 2-9; not fully specified; printed as Ac-A-R7-I-L-D-A-H-I-MD-R-V-W-NH2; also: carbamate staple R7/MD (-N(R')-C(O)-O-)
B38: FP0644c (peptide)
peptide: Ac-A[R8]I[αMeL]DAHI[MB(4)]RVW-NH2
modifications: staple 2-9

Molecular target: T1, full-length beta-catenin
Test: competition FP, grade of FP EC50 (+++: <=100 nM)
Description: (§1) In some embodiments, a competition fluorescence polarization assay is used to assess binding of provided compounds to beta-catenin. In an exemplary procedure, solutions of provided compounds, e.g., provided stapled peptides, were prepared in a buffer (e.g., 50 mM Tris pH 8.0, 250 mM NaCl, 2% glycerol, 0.5 mM EDTA, 0.02% w/v sodium azide) using a 3-fold serial dilution from 5 µM. Probe solution (15 nM full-length ß-Catenin, 20 nM FITC labeled peptide in buffer) was prepared and incubated for a period of time, e.g., 5 minutes, and the a volume, e.g., 40 µL per well plated in suitable plate, e.g., a black polystyrene 384-well plate (Corning). Equal volume of the serial diluted peptide was added to the plate and incubated protected from light for 15 minutes prior to read. Reads were performed on a Spectramax M5 (Molecular Devices) in duplicate. Suitable probe was FITC-PEG1-PQ-S5-ILD-S5-HVRRVWR (SEQ ID NO: 1) (hydrocarbon staple formed by two S5 via olefin metathesis) and/or FITC-bA-PQ-S5-ILD-S5-HVRRVWR (SEQ ID NO: 3) (hydrocarbon staple formed by two S5 via olefin metathesis). […] Another peptide, FPO217c (Ac-AR_8ILDAHIM$B5$RVW (SEQ ID NO: 280), with N-terminal proline removed and valine replaced with isoleucine compared to FP0025c) was prepared.

FP EC50 [nM] | Binder
≤ 100 | B1
≤ 100 | B2
≤ 100 | B3
≤ 100 | B4
≤ 100 | B5
≤ 100 | B6
≤ 100 | B7
≤ 100 | B8
≤ 100 | B9

Molecular target: T1, full-length beta-catenin
Test: competition FP
Description: as §1

EC50 [nM] | Binder
1300 | B10
520 | B11
540 | B12
2100 | B13
1400 | B14

Molecular target: T1, full-length beta-catenin
Test: competition FP, grade of FP EC50 (+: 500-5000 nM)
Description: as §1

FP EC50 [nM] | Binder
500 to 5000 | B10
500 to 5000 | B11
500 to 5000 | B12
500 to 5000 | B13
500 to 5000 | B14

Molecular target: T1, full-length beta-catenin
Test: competition FP, grade of FP EC50 (++: 100-500 nM)
Description: as §1

FP EC50 [nM] | Binder
100 to 500 | B15
100 to 500 | B16
100 to 500 | B17
100 to 500 | B18
100 to 500 | B19
100 to 500 | B20
100 to 500 | B21
100 to 500 | B22
100 to 500 | B23
100 to 500 | B24
100 to 500 | B25
100 to 500 | B26
100 to 500 | B27
100 to 500 | B28
100 to 500 | B29
100 to 500 | B30
100 to 500 | B31
100 to 500 | B32
100 to 500 | B33
100 to 500 | B34
100 to 500 | B35
100 to 500 | B36
100 to 500 | B37
100 to 500 | B38
